# T1: GST-SHARPIN (Homo sapiens, UniProt Q9H0F6)
# T1 sequence (Q9H0F6 1-387): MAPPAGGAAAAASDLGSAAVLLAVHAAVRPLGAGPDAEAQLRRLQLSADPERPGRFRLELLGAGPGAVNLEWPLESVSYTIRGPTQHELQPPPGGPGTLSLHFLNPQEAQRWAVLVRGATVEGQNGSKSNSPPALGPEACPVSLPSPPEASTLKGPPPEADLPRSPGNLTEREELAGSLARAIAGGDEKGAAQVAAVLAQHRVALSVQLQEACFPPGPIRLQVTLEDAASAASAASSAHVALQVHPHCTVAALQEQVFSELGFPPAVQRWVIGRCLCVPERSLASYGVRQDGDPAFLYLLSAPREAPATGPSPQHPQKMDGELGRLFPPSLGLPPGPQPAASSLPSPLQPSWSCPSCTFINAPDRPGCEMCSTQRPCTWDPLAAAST
# B1: recombinant GST-SHARPIN (natural protein)
# chain: T1 sequence (Q9H0F6 1-387)
# How the values were obtained:
# GST-SHARPIN = molecular target: T1, GST-SHARPIN; assay type: binding; settings: 2.5 μM biotinylated peptide on streptavidin-sepharose beads; Western blot
# [1] = molecular target: EDANS-labelled wild-type α2-peptide (α2-wt); assay: fluorescence polarisation
Molecule,interaction of recombinant GST-SHARPIN with biotinylated peptide (pull-down) (GST-SHARPIN),Kd [1] [µM]
"β1-tail: peptide of the cytoplasmic domain of β1-integrin, biotinylated or unlabelled",did not interact,–
B1,–,26
